The values below come from PMC4133262, “Discovery of a Eukaryotic Pyrroloquinoline Quinone-Dependent Oxidoreductase Belonging to a New Auxiliary Activity Family in the Database of Carbohydrate-Active Enzymes” (PLoS ONE, 2014).

The target in series [1] is T1, PQQ domain of CcSDH (Coprinopsis cinerea, UniProt A0A0A8IDB7).
T1 construct: gene PDH; PQQ dehydrogenase domain only: N-terminal 221 residues (heme domain) and last 77 C-terminal residues (with CBM1) removed; begins at T222 (primer encodes TFVSC); secreted from Pichia pastoris
T1 sequence (A0A0A8IDB7 240-649): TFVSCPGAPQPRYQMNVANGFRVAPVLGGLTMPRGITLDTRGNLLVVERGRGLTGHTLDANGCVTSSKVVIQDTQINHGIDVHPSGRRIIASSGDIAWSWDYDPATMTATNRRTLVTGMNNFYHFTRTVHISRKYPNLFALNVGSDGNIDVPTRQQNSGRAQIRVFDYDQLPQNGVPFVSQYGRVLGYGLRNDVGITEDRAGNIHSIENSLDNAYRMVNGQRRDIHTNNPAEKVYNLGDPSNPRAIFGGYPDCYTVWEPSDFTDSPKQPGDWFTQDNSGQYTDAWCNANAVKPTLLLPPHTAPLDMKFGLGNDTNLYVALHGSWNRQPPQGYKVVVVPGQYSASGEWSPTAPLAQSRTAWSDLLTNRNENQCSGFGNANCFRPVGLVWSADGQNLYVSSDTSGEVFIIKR
The series can be described thus: isothermal titration calorimetry, single-site model. In kind it is binding. In general terms: Isothermal titration calorimetry measures the heat released or taken up as one component is titrated into another.

Substrate in series [2]: O=CC(=O)[C@@H](O)[C@H](O)[C@H](O)CO
The series can be described thus: purified protein. In kind it is biochemical, Coprinopsis cinerea. Conditions: 50 mM Tris-HCl pH 8.5, 1 µM PQQ, 1 mM CaCl2, 50 µM cytochrome c, 30 °C, background reduction by D-glucosone subtracted.

As to `O=C(O)c1cc(C(=O)O)c2c(n1)C(=O)C(=O)c1cc(C(=O)O)[nH]c1-2` [Pyrroloquinoline quinone], binding in series [1] was put at a Kd of 1.11 nM.

B1: CcSDH (C. cinerea sugar dehydrogenase), full-length recombinant (Coprinopsis cinerea) (protein)
chain: QGSPTQWYDSITGVTFSRFYQQDTDASWGYIFPSASGGQAPDEFIGLFQGPASAGWIGNSLGGSMRNNPLLVGWVDGSTPRISARWATDYAPPSIYSGPRLTILGSSGTNGNIQRIVYRCQNCTRWTGGAGGIPTTGSAVFGWAFHSTTKPLTPSDPSSGLYRHSHAAQYGFDIGNARTTLYDYYLQQLTNAPPLSGGAPTQPPTQQPPTTTAPPPPPPSSTFVSCPGAPQPRYQMNVANGFRVAPVLGGLTMPRGITLDTRGNLLVVERGRGLTGHTLDANGCVTSSKVVIQDTQINHGIDVHPSGRRIIASSGDIAWSWDYDPATMTATNRRTLVTGMNNFYHFTRTVHISRKYPNLFALNVGSDGNIDVPTRQQNSGRAQIRVFDYDQLPQNGVPFVSQYGRVLGYGLRNDVGITEDRAGNIHSIENSLDNAYRMVNGQRRDIHTNNPAEKVYNLGDPSNPRAIFGGYPDCYTVWEPSDFTDSPKQPGDWFTQDNSGQYTDAWCNANAVKPTLLLPPHTAPLDMKFGLGNDTNLYVALHGSWNRQPPQGYKVVVVPGQYSASGEWSPTAPLAQSRTAWSDLLTNRNENQCSGFGNANCFRPVGLVWSADGQNLYVSSDTSGEVFIIKRMSGPIVQPPITQPPITTSPPTPTTPPVVQPPTTVAPPQASQTLWGQCGGQGWTGPTLCPANSVCRESNQWYSQCVPA
notes: mature protein without 18-residue signal peptide (726-aa ORF); AA8 cytochrome b + PQQ dehydrogenase + CBM1 domains; secreted from Pichia pastoris (pPICZalpha), glycosylated, 98 kDa on SDS-PAGE; genome locus Chromosome 6:1274274-1277156
For the molecule B1, in series [2], the Km is given as 7.9 (±0.3) mM; the kcat (as a rule, the number of substrate molecules converted per active site and unit of time at saturation) turned out to be 74.1 ± 1.4 s⁻¹; the catalytic efficiency (kcat/Km) (commonly the second-order rate constant that governs catalysis at low substrate concentration) is 9370 M⁻¹ s⁻¹.
